± gives the half width of the 95% confidence interval.
Experiment: folding stability dG unfold from chymotrypsin proteolysis; higher = more stable
Procedure, shortened: (§1)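 Digests were run with trypsin and chymotrypsin at 11 concentrations in threefold dilutions, plus a no-protease condition, on designed mini-proteins in a PA-tagged cDNA display construct. The mini-proteins were under 80 residues, had no cysteine, and were kept only when AlphaFold2 dimer inter-PAE was above 15. After sequencing, Bayesian fitting of the counts gave K50, from which unfolding free energy was derived against a sequence-predicted unfolded-state K50 and a shared folded-state K50, per protease or combined.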

Sequence	folding stability dG unfold [kcal/mol]
SKTIYIPKNVPIDYILKVVKEAEKKGKPVKIVIETYNNPKVIEALKKAGYKVEIKEDKKKKITLIVVYPESA [r9_759_TrMRF]	4.35 ± 0.11
SAGGSAGGSAGVVRTDDGREVTVRRTVRVEVRLEITITASEEDREKAAAALERLLRELGLSAGGSAGGSAGG [r17_501_TrROS_Hall]	3.04 ± 0.086
SAGGSTVAKKTTEKDPNSDTTTVTITFPETGVKLTVTVPPGGETTVTLNNGSPPTTLTLPLSVLKLLSAGGS [r8_238_JUSTAS]	0.87 ± 0.067
SAMEKVYIKVKFEVEGDPNGKEKKTIELIVENPDPNIGKEKLLEIAKEAVEKFAKENGYKVKISEVEIGSAG [r14_190_TrMRF]	4.22 ± 0.18
SASLANGGLRVDVELEFDPETHEIRVKRLTLYRGDEPVATADATIAVPPAAPPPPPVVVLDPDVPFDNESAG [r14_571_TrMRF]	1.71 ± 0.084
SAGGKKNKPKPKVKVKILSVTANPDPNTPGLLSVSVPVLIESDDEEFALALAKELAKLPNVKVVVLGGSAGG [r13_606_TrMRF]	1.42 ± 0.037
SAGGKKVIVIEGLTEEEILEKIKEEFPEPVEVIIRRPDGYVVKITVDAKTREIKKVEVVKVPPPEKPSAGGS [r8_225_TrROS_Hall]	2.01 ± 0.16
SAGGLNIKFEILEVYPSPNGMRMIIVRMTIEYPVPVYRRDPNGEWRPMPPGQEPVTIEIDFYIMVTPSAGGS [r16_693_TrROS]	5.11 ± 0.13
SAGPNLENLEIVEIKAEVLPDNSVIVPLKVRNDNGEEEEVWGRVGNGIVTLTYPNGFPAVAFIPPSAFSAGG [r19_84_TrMRF]	0.576 ± 0.089
SAGGVTVSLSDPLSGNITTVPVAPNSTVTVTTSASLGGPNYTITTTVTVTLNGSTPVFTITSTVTPLSSAGG [r19_331_JUSTAS]	3.54 ± 0.071
SAGGSAGGSAGVITIPLDDINDLPPGFKVKPNNNSMMIEDGDNPIHIPPGEPVQIEPPDESAGGSAGGSAGG [r17_91_TrROS]	0.346 ± 0.097
SAGKKIDPEALAKRILKEFGLPEDAEVEVEEIENTYIARFPEATALFTIEDDEVTVFLAPARPEPELAGSAG [r5_190_TrMRF]	0.598 ± 0.18
SMEVKIELTDEEIEAALEAGYEVEIEVRVVEVEYDEETDEVTVKVEVTITIRPVPPPPEVVVDEETGEILSA [r9_396_TrROS_Hall]	0.342 ± 0.057
SAGGSASMSNVTSYVTVYKKPGVDDLYYKVRILAPSEPKVIEIPESEIPKYEKEGIKIEKVSEELLSAGGSA [r15_783_JUSTAS]	1.96 ± 0.32
SAGGKPRILLRRETAPDGRPYYVLQVLRRDPSDDGWTPVLEHRFETPEEAERYARELAEKTGYELVGSAGGS [r16_512_TrMRF]	4.9 ± 0.11
SAGMVIKVKVKNKDGEELELVIEIPEEELPEELTEEELKELAKKLAEELAKEGKVEVVEVEIVEPEELSAGG [r19_27_TrROS_Hall]	1.8 ± 0.13
SAGGSAGGSPETVTLTLTVTVKTVTLDPETGELTTTTHTVTLTLTLSKEDLEALLKSPELKKLSAGGSAGGS [r12_1015_TrROS_Hall]	3.09 ± 0.067
SAGGSAGGSMYVVRAVIRRPKAVPPPLAEEEIDIPVADREITAEEIARLFTPPGYELVRIEADSAGGSAGGS [r12_611_TrMRF]	-0.36 ± 0.24
SAGGSAGGSAMKVGEEVEVTVRIKVDGKEYEVKAKATLDEDGNVTLEVEIKAKEGKVEIEIESAGGSAGGSA [r18_428_TrROS_Hall]	2.15 ± 0.14
SAGGSGMMLEEGVGVDPTTGELHRFTYLREPERPPVEVTVTTTTVVYTTPDGTTVTVTTTTTLEGGSAGGSA [r2_326_JUSTAS]	0.786 ± 0.27
SAGGSAGMMTDVEVEEYPGTGLVRITIRTPDAVVSGEGRFLSPELLEITISFPGAGKRTNELIPVRSAGGSA [r15_837_JUSTAS]	1.26 ± 0.048

Experiment: folding stability dG unfold from trypsin proteolysis; higher = more stable
Procedure, shortened: as §1

Sequence	folding stability dG unfold [kcal/mol]
SAGGVITAEQLRDLVKTLPPDYTIRVKVYYSTSTEEYTITPDNPIKFPPNAPTETITRIEVVEISPDSAGGS [r16_97_TrMRF]	3.87 ± 0.088
SAGGGITITLPDGSVIEIEPVSTFTNEDGQPVTKIKATLTDPVTGTSVEADIYLFPDGGVKIDLKPGSAGGS [r16_651_TrMRF]	2.3 ± 0.051
SAGGSAGGSAVKIKIEQLGPGYFHITIEQEMMYPDGKSRKMTMTMMFKVNAPPNDPALRELLSAGGSAGGSA [r18_215_TrROS]	2.69 ± 0.059
SAGGMVKLFTWPPGQPEEFAEKLRKLPDVVEVTIEEVDGALRIRIKLKGKDVEVTTDPAGRWSVTVVGSAGG [r13_907_JUSTAS]	2.15 ± 0.034
SAGGSAGGSKTYKIKVEKLEDGTYKLKIIDKKTKKEYEITISKKNLPKIKEIKITKNGKIEIKSAGGSAGGS [r20_11_TrROS_Hall]	1.73 ± 0.026
SAGSLKPGDLLYVRIYVYNPDGELLGEIDELVETEEEAERRLRELAREIEERLGRNVRVLAEIYRYPRLSAG [r5_232_TrMRF]	3.36 ± 0.088
SAGATTTTTTTNPADDTTVTTTTTTTGNTSTVTSTSTSGSTSTLTTTTVTFTSPTTTTTTTTTTPVPSSAGG [r19_292_JUSTAS]	0.679 ± 0.03
SAGGPWVVIKIRTPNKPIEIPIPGFKIENTGDSMTIVFPPDDPDQVLDALEKASPGIKITKIEVVKPSAGGS [r8_490_TrROS]	0.65 ± 0.06
SAGGSAGGMIIRITTKNGKTLEIKAKSLEEAKAAIAEKLGLSKENIKPEDITKVEIYSEEELKESAGGSAGG [r6_586_TrROS_Hall]	2.95 ± 0.17
SAGGSAGGSKIKPGEKVEIKLKIKVKDKNGKEKEIELTFSKDMTVEEIKKLLKELEKKGFEIESAGGSAGGS [r20_27_TrROS_Hall]	1.56 ± 0.12
